Results from article PMC10477855.

Molecular target: UBR5 (UniProt O95071)
Experiment: co-IP and immunoblot, transfected cells
Conditions: reference: ACSL4 wild type; sites S447

## ACSL4 (from UniProt O60488) ACSL4 S447A
  binding against the reference: lost
